This series deals with the molecule itself. Briefly: cryo-EM structure; filament auto-assembled by recombinant IFI16^PYD; 73 uM in 40 mM HEPES pH 7.4, 160 mM NaCl, 1 mM EDTA, 1 mM DTT; helical reconstruction, 3.3 Å.

B1: human IFI16 pyrin domain (IFI16^PYD, residues 1-94) with C-terminal His6-tag (domain or fragment, UniProt Q16666 1-94, looked up)
chain: MGKKYKNIVLLKGLEVINDYHFRMVKSLLSNDLKLNLKMREEYDKIQIADLMEEKFRGDAGLGKLIKIFEDIPTLEDLAETLKKEKLKVKGPAL
notes: Interferon-inducible protein 16 (IFI16), human, pyrin domain, residues 1-94; Assembles into a helical filament; the number of protomers in a filament is open-ended; also called recombinant IFI16^PYD; pET21b IFI16^PYD-His6; source: E. coli BL21(DE3), purified (Ni-NTA, Superdex 75 size exclusion)
As to B1, the binding result is recorded as “binds”.

The values are drawn from PMC12705702, “Structural insights into the atypical filament assembly of pyrin domain-containing IFI16” (The EMBO Journal, 2025).
